Experimental data: patent publication US20230106715A1 (BIOSION, published 2023)

T1: human Siglec15 on human-siglec15-2D3-1E1 cells (human, UniProt Q6ZMC9 20-328)
T1 construct: whole, on cells; Transfected HEK-293 cells; also called cell surface human Siglec15
T1 sequence (looked up): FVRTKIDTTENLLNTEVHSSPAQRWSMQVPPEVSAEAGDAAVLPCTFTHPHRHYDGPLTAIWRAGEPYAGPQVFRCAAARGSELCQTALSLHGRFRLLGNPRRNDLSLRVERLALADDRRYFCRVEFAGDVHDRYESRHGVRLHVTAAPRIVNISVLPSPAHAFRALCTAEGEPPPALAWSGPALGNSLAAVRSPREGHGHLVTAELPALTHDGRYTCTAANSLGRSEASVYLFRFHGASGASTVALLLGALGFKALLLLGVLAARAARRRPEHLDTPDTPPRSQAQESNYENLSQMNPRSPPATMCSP

T2: mouse Siglec15-his protein (mouse)
T2 construct: In house made
T2 chain: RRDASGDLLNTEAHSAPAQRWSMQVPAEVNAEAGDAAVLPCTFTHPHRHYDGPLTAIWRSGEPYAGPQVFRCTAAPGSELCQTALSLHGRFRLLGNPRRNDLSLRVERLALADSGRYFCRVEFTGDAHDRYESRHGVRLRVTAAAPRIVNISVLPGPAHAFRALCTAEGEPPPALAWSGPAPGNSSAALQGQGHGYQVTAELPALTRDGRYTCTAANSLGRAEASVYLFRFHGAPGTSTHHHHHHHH

T3: cynomolgus monkey Siglec15-his protein (cynomolgus monkey)
T3 construct: In house made; also called Cynomolgus Siglec15-his; cynomolgus Siglec15
T3 chain: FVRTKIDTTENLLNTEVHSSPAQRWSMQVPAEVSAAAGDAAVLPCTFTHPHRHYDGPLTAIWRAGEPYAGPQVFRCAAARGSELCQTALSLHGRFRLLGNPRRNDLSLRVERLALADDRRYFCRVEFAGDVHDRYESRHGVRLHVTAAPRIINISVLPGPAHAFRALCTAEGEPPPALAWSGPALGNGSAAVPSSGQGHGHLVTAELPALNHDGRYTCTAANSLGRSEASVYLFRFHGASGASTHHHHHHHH


Experiments:
[1] = biological target: T1, human Siglec15 on …; test: cell based binding FACS on human-siglec15-2D3-1E1 cells
Experimental: The binding activities of the anti-Siglec15 antibodies to cell surface Siglec15 were tested by flow cytometry (FACS), using in-house prepared human-siglec15-2D3-1E1 cells expressing human Siglec15 (amino acid residues Met1-Pro328 of uniprot #Q6ZMC9) on cell membranes. The human-siglec15-2D3-1E1 cells were prepared by transfecting HEK-293 cells (ATCC #CRL-1573) with pCMV-T-P plasmids inserted with human Siglec15 coding sequence between EcoRI and XbaI sites, following the instruction of lipofectamine 3000 transfection reagent (Thermo Fisher). The human-siglec15-2D3-1E1 cells were harvested from cell culture flasks, washed twice and re-suspended in phosphate buffered saline (PBS) containing 2% v/v Fetal Bovine Serum (FACS buffer). 2×10⁵ cells per well in 96 well-plates were incubated in 100 μL serially diluted anti-Siglec15 antibodies or controls (starting at 66.67 nM, 5-fold serial dilution) in FACS buffer for 40 minutes on ice. […] Following a 40-minute incubation at 4° C. in dark, cells were washed three times and re-suspended in FACS buffer. Fluorescence was measured using a Becton Dickinson FACS Canto II-HTS equipment. Data was analyzed using Graphpad Prism software and EC₅₀ values were reported.

[2] = biological target: T2, mouse Siglec15-his protein; test: SPR Biacore T200, antibody captured by anti-human IgG, antigen as analyte, 1:1 fit
Experimental: Briefly, goat anti-human IgG (GE healthcare, Cat #BR100839, Human Antibody Capture Kit) was covalently linked to a CM5 chip (carboxy methyl dextran coated chip, GE healthcare, Cat #BR-1005-30) via primary amines, using a standard amine coupling kit provided by Biacore (GE healthcare, Pittsburgh, Pa., USA). Un-reacted moieties on the biosensor surface were blocked with ethanolamine. Then, purified anti-Siglec15 antibodies of the disclosure at the concentration of 13.3 nM and an anti-Siglec15 benchmark (ch5G12, also referred to as BM, see U.S. Patent Publication No. 20190202912A1, amino acid sequences of the heavy chain and light chain set forth in SEQ ID NOs: 24 and 25, respectively) at 13.3 nM, were respectively flowed onto the chip at a flow rate of 10 μL/min. Then, serially diluted recombinant human Siglec15-his protein (in house made, amino acid sequence set forth in SEQ ID NO: 20) or cynomolgus monkey Siglec15-his protein (in house made, amino acid sequence set forth in SEQ ID NO: 21), 2-fold serial dilution in HBS-EP⁺ buffer starting at 80 nM, were respectively flown onto the chip at a flow rate of 30 μL/min. The antigen-antibody association kinetics was followed for 2 minutes and the dissociation kinetics was followed for 10 minutes. The association and dissociation curves were fit to a 1:1 Langmuir binding model using BIAcore evaluation software.
For the BIAcore test measuring the binding affinities of the modified A2A5C7E8 variants to mouse Siglec 15, mouse Siglec15-his protein (in house made with SEQ ID NO: 22) was used.

[3] = biological target: T3, cynomolgus monkey Siglec15-his protein; test: SPR Biacore T200, antibody captured by anti-mouse IgG, antigen as analyte, 1:1 fit
Experimental: (§1) Briefly, goat anti-mouse IgG (GE healthcare, Cat #BR100838, Mouse Antibody Capture Kit) was covalently linked to a CM5 chip (carboxy methyl dextran coated chip from GE healthcare, Cat #BR100530) via primary amines using a standard amine coupling kit (GE healthcare, Pittsburgh, Pa., USA) provided by Biacore. Un-reacted moieties on the biosensor surface were blocked with ethanolamine. The purified mouse anti-Siglec15 antibodies of the disclosure at the concentration of 13.3 nM, were respectively flowed onto the chip at a flow rate of 10 μL/min. Then, serially diluted human Siglec15-his protein (in house made, amino acid sequence set forth in SEQ ID NO: 20), cynomolgus monkey Siglec15-his protein (in house made, amino acid sequence set forth in SEQ ID NO: 21), or mouse Siglec15-his protein (in house made, amino acid sequence set forth in SEQ ID NO: 22), 2-fold dilution in HBS-EP⁺ buffer (provided by Biacore) starting at 80 nM, were flowed onto the chip at a flow rate of 30 μL/min. The antigen-antibody association kinetics was followed for 2 minutes and the dissociation kinetics was followed for 10 minutes. The association and dissociation curves were fit to a 1:1 Langmuir binding model using BIAcore evaluation software.

[4] = biological target: T2, mouse Siglec15-his protein; test: as above
Experimental: as §1

Row | EC50 [1] | Kd [2] | koff [2] | kon [2] | Kd [3] | koff [3] | kon [3] | Kd [4] | koff [4] | kon [4] | Binder
1 | 11.6 nM | 0.17 nM | 0.000931 s⁻¹ | 5.47e+06 M⁻¹ s⁻¹ |  |  |  |  |  |  | anti-Siglec15 benchmark (ch5G12) (antibody, human IgG1, kappa, V domains shown, ch5G12 (US 20190202912A1); also called BM; Siglec15-ch5G9) VH: QVQLQQPGAELVKPGASVKMSCKASGYTFTSYWITWVIQRPGQGLEWIGDIYCGSDTMHYNEKFKNKATLTVDTSSSTAYMQLSSLTSEDSAVYYCARWWDYGSSYDYFDYWGQGTTLTVSS VL: DIKMTQSPSSMYASLGERVTITCKASQDINSYLSWFQQKPGKSPKTLIYRANRLVDGVPSRFSGSGSGQDYSLTISSLEYEDMGIYYCLQYDEFPYTFGGGTKLEIKR
2 | 0.998 nM |  |  |  | 0.476 nM | 0.000338 s⁻¹ | 711000 M⁻¹ s⁻¹ | 0.337 nM | 0.00445 s⁻¹ | 1.32e+07 M⁻¹ s⁻¹ | B2D7H7A3C1 (antibody, V domains shown, Mouse monoclonal antibody from hybridoma; also called mouse B2D7H7A3C1) VH: QVQLQQSGAELVRPGTSVQMSCKAAGYTFTNYWIGWVKQRPGHGLEWVGDIHPGINYTNNNEKFRGKATLTADTSSNTAYMQLRGLTSDDSAIYYCARVDYDYDGSYIMDYWGQGTSVTVSS VL: QIVLSQSPALLSASPGEKVTMTCRASSSVSYMYWYQQKPGSSPKPWIYATSNLTSGVPARFSGSGSGTSYSLTISRVEAEDAATYFCQQWNSKPWTFGGGSKLEIR
3 | 1.17 nM |  |  |  | 0.372 nM | 0.000371 s⁻¹ | 996000 M⁻¹ s⁻¹ | 0.423 nM | 0.0108 s⁻¹ | 2.55e+07 M⁻¹ s⁻¹ | B2G12H3E8 (antibody, V domains shown, Mouse monoclonal antibody from hybridoma; also called mouse B2G12H3E8) VH: QVQLKQSGAELVRPGTSVQMSCKAVGYTFTNYWIGWVKQRPGHGLEWVGDIHPGINYTNNNEKFRGKATLTADTSSSTAYMQLRGLTSDDSAIYYCARVDYDYDGSYIMDYWGQGTSVTVSS VL: QIVLSQSPALLSASPGEKVTMTCRASSSVSYMYWYQQKPGSSPKPWIYATSNLTSGVPARFSGSGSGTSYSLTISRVEAEDAATYFCQQWNSKPWTFGGGSKLEIR
4 | 1.91 nM |  |  |  | 0.405 nM | 0.000352 s⁻¹ | 869000 M⁻¹ s⁻¹ | 0.39 nM | 0.00737 s⁻¹ | 1.89e+07 M⁻¹ s⁻¹ | B2H2H1H7 (antibody, V domains shown, Mouse monoclonal antibody from hybridoma; also called mouse B2H2H1H7; B2H2H1A7) VH: QVQLQQSGAELVRPGTSVQMSCKAAGYTFTNYWIGWVKQRPGHGLEWVGDIHPGINYTNNNEKFRGKATLTADTSSSTAYMQLRGLTSDDSAIYYCARVDYDYDGSYIMDYWGQGTSVTVSS VL: QIILSQSPALLSASPGEKVTMTCRASSSVSYMYWYQQKPGSSPKPWIYATSNLTSGVPARFSGSGSGTSYSLTISRVEAEDAATYFCQQWNSKPWTFGGGSRLEIR
5 |  | 0.0875 nM | 0.000187 s⁻¹ | 2.14e+06 M⁻¹ s⁻¹ |  |  |  |  |  |  | A2A5C7E8 (antibody, V domains shown, Fully human antibody from transgenic mouse hybridoma; also called A2A5C7E8-1) VH: EVQLVQSGAEVKKPGESLRISCKGSGYSFTTYWISWVRQMPGKGLEWMGLIDPSDSYTNYSPSFQGHVTISTDKSISTAYLQWSSLKASDTAMYYCARGGYYGSEEDYWGQGTLVTVSS VL: EIVLTQSPGTLSLSPGERATLSCRASQSVSSSRLAWFQQKSGQAPRLLIFDASSRATGIPDRFSGSGSGTDFTLTISRLEPEDFAVYYCQQYGSSPRTFGQGTKVEFK
6 |  | 0.188 nM | 0.000495 s⁻¹ | 2.63e+06 M⁻¹ s⁻¹ |  |  |  |  |  |  | A2A5C7E8-2 (antibody, human IgG1, kappa, V domains shown, Variant of A2A5C7E8 modified in VH CDR2 (X1 = E)) VH: EVQLVQSGAEVKKPGESLRISCKGSGYSFTTYWISWVRQMPGKGLEWMGLIDPSESYTNYSPSFQGHVTISTDKSISTAYLQWSSLKASDTAMYYCARGGYYGSEEDYWGQGTLVTVSS VL: EIVLTQSPGTLSLSPGERATLSCRASQSVSSSRLAWFQQKSGQAPRLLIFDASSRATGIPDRFSGSGSGTDFTLTISRLEPEDFAVYYCQQYGSSPRTFGQGTKVEFKR
7 |  | 0.0737 nM | 0.000165 s⁻¹ | 2.24e+06 M⁻¹ s⁻¹ |  |  |  |  |  |  | A2A5C7E8-3 (antibody, human IgG1, kappa, V domains shown, Variant of A2A5C7E8 modified in VH CDR2 (X2 = K)) VH: EVQLVQSGAEVKKPGESLRISCKGSGYSFTTYWISWVRQMPGKGLEWMGLIDPSDSYTNYSPSFKGHVTISTDKSISTAYLQWSSLKASDTAMYYCARGGYYGSEEDYWGQGTLVTVSS VL: EIVLTQSPGTLSLSPGERATLSCRASQSVSSSRLAWFQQKSGQAPRLLIFDASSRATGIPDRFSGSGSGTDFTLTISRLEPEDFAVYYCQQYGSSPRTFGQGTKVEFKR
